Values of other authors in PMC5408189.

Molecular target: integrin α5β1 (Homo sapiens) (UniProt P08648)
Experiment: surface plasmon resonance

UniProt P08648, sequence (P08648 42-1049, chain 1 of 2): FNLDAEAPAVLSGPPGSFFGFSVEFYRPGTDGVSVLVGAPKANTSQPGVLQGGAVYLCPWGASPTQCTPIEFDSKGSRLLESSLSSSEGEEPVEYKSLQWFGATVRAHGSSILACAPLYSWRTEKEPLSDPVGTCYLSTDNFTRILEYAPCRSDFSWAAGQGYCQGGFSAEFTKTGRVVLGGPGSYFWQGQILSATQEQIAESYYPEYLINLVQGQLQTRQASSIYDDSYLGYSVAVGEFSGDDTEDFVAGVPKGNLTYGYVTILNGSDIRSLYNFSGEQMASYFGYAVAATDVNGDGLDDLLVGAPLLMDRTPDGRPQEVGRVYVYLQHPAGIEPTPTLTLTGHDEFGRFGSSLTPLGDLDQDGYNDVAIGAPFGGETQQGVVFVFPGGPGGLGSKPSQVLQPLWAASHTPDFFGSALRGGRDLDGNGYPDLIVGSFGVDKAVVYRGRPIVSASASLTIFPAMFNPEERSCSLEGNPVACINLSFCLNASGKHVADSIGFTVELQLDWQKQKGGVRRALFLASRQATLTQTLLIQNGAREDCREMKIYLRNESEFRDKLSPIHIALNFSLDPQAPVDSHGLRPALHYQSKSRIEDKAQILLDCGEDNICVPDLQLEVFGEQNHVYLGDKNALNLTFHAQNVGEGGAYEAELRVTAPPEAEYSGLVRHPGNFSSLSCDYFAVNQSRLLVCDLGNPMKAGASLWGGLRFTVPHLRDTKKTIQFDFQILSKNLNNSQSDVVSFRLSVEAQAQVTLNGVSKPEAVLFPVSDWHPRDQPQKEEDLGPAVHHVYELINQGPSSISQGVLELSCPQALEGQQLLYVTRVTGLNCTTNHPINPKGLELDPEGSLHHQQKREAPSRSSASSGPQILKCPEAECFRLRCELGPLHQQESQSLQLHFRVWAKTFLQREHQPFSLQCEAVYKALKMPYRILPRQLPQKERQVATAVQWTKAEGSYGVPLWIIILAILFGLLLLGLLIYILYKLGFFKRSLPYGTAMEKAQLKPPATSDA
UniProt P08648, sequence (P05556 21-798, chain 2 of 2, further chain): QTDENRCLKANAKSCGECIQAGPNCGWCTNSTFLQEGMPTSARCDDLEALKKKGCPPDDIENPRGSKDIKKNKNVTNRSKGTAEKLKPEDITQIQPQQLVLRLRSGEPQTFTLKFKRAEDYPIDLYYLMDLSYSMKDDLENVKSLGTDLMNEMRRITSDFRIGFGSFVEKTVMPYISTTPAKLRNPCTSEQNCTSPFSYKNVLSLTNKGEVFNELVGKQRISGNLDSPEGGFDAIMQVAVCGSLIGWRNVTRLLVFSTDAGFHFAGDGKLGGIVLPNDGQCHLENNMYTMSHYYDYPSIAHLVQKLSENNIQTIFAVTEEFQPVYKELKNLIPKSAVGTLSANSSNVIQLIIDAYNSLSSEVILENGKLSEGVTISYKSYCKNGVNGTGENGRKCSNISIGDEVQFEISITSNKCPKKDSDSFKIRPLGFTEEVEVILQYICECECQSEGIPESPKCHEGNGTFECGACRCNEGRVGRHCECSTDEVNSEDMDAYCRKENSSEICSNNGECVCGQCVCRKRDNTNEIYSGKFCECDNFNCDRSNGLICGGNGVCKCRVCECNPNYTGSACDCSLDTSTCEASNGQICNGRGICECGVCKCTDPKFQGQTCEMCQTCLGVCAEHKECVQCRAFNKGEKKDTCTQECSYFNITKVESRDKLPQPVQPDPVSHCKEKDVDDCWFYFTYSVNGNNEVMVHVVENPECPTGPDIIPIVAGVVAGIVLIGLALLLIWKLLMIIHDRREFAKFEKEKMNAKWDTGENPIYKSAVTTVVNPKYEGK

CagA (from UniProt P55980)
Kd: 0.15 nM
